Laboratory results published in article PMC10170503, “Oral Delivery of Nanoparticles Carrying Ancestral Uricase Enzyme Protects against Hyperuricemia in Knockout Mice” (Biomacromolecules, 2023).

Biological target: the molecule itself
Assay: microfluidic denaturing gel electrophoresis (Bioanalyzer); Agilent Bioanalyzer 2100, Protein 80 chip; purified Qβ-wt and Qβ@AncUOX particles; dimer band left by incomplete denaturation

B1: Qβ capsid protein (coat protein), assembled as virus-like particle (natural protein, Qβ (bacteriophage, as named), UniProt P03615 1-133, looked up)
chain: MAKLETVTLGNIGKDGKQTLVLNPRGVNPTNGVASLSQAGAVPALEKRVTVSVSQPSRNRKNYKVQVKIQNPTACTANGSCDPSVTRQAYADVTFSFTQYSTDEERAFVRTELAALLASPLLIDAIDQLNPAY
notes: also called Qβ CP; CP; source: E. coli BL21 (DE3), co-expressed with Rev-tagged AncUOX from a bicistronic pCDF-1b plasmid; VLPs purified (ammonium sulfate precipitation, n-butanol:chloroform extraction, sucrose density ultracentrifugation)
  stoichiometry N: 2
